Measurements published in PMC3182218, “Obesity Risk Gene TMEM18 Encodes a Sequence-Specific DNA-Binding Protein”.

Biological target: TMEM18 (UniProt Q96B42 1-140)
Experiment: EMSA; 400 nM probe; EMSA: 10 mM Tris pH 7.4, 50 mM KCl, 1 mM DTT, 0.05% DDM, 30 min, RT; 4-20% TBE gel in 0.5x TBE
Settings: protein: recombinant, tags: N-terminal Flag-His8, blunt

TMEM18, sequence (Q96B42 whole entry): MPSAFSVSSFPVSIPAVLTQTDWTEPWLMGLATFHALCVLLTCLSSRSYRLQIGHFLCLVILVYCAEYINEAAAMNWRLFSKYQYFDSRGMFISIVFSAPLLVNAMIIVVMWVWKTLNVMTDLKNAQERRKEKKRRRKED

B1: biotin-(GTG)8 (dsDNA)
DNA 1: GTGGTGGTGGTGGTGGTGGTGGTG
DNA 2: CACCACCACCACCACCACCACCAC
- binding result (label: 5' biotin on (GTG)8 strand): no binding

B2: biotin-(GCT)8 (dsDNA)
DNA 1: GCTGCTGCTGCTGCTGCTGCTGCT
DNA 2: AGCAGCAGCAGCAGCAGCAGCAGC
- binding result (label: 5' biotin on (GCT)8 strand): binds
